The values below come from patent US20030190634.

Like-named read-outs stand apart in the source and are kept apart here.

In data set [1] the target is Aquifex sp. DNA ligase (Aquifex sp.) (UniProt O66880). Particulars: initial ligation rate, 65 C.
For data set [2], the target named is T1, T4 DNA ligase (Enterobacteria phage T4?) (UniProt P00970).
T1 sequence: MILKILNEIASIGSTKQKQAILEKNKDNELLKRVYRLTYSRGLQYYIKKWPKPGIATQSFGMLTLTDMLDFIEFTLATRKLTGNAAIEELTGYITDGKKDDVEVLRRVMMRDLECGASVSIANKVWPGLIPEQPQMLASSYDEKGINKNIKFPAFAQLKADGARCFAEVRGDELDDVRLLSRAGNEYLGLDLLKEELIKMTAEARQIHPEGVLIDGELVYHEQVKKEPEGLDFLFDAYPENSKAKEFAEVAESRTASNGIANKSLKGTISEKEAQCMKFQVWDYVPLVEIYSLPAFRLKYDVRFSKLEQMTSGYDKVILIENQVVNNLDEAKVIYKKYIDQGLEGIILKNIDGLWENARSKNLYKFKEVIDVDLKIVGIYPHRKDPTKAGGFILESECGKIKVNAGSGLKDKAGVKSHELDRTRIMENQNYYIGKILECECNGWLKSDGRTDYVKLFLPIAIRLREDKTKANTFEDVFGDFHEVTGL
The settings on record: initial ligation rate, 0.5 nM enzyme, 37 C.

Data set [3] addresses Thermus sp. AK16D DNA ligase (Thermus sp. AK16D) (UniProt Q9ZFY8). Particulars: initial ligation rate, 65 C.
In data set [4] the target is Tth DNA ligase K294R K294R (Thermus thermophilus) (UniProt P26996). Particulars: initial ligation rate, 65 C.
For data set [5], the target named is Tth DNA ligase wild type (Thermus thermophilus) (UniProt P26996). The settings on record: initial ligation rate, 65 C.
Setting [6] is: 12.5 nM enzyme, NAD+, 10 mM MgCl2.

Chain of Tth DNA ligase wild type (Thermus thermophilus) (P26996 whole entry): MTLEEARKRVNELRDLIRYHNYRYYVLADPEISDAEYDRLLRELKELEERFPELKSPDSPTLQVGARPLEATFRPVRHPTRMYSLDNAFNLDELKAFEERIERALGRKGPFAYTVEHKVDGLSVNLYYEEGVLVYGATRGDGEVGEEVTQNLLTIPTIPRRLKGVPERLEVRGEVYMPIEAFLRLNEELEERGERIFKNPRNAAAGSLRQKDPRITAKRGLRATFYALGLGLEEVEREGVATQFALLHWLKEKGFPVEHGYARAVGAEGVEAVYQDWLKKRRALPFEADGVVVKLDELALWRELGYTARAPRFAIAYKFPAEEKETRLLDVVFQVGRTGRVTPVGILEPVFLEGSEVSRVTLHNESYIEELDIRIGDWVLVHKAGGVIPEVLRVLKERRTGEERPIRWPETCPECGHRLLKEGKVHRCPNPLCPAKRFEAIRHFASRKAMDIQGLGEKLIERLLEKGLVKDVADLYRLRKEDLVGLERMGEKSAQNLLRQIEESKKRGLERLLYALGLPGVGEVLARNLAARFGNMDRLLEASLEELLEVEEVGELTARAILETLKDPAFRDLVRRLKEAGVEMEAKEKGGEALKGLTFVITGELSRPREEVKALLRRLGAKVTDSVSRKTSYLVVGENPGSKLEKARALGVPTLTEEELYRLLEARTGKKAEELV
Chain of Tth DNA ligase K294R K294R (Thermus thermophilus) (P26996 whole entry K294R): as the sequence (P26996 whole entry) above, with K294R counted along it
Chain of Aquifex sp. DNA ligase (Aquifex sp.) (O66880 whole entry): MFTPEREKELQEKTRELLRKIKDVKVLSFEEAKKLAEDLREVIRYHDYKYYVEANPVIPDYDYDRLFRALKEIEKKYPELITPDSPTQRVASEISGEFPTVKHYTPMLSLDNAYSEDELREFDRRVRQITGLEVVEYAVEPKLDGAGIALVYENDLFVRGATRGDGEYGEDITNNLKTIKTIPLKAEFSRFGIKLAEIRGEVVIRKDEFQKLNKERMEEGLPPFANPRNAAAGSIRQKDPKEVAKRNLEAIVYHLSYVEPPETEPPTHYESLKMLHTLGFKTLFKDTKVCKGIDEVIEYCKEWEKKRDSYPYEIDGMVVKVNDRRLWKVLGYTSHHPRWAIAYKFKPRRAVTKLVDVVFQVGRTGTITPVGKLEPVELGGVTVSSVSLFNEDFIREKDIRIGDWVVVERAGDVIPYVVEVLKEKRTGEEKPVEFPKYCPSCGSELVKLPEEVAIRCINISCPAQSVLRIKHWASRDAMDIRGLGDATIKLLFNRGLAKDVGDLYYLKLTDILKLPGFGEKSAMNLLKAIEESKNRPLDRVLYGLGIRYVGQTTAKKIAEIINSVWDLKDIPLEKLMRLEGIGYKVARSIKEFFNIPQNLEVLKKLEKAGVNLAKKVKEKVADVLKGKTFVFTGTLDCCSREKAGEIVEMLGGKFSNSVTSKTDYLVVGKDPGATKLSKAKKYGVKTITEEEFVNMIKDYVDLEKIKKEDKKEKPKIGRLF
Chain of Thermus sp. AK16D DNA ligase (Thermus sp. AK16D) (Q9ZFY8 whole entry): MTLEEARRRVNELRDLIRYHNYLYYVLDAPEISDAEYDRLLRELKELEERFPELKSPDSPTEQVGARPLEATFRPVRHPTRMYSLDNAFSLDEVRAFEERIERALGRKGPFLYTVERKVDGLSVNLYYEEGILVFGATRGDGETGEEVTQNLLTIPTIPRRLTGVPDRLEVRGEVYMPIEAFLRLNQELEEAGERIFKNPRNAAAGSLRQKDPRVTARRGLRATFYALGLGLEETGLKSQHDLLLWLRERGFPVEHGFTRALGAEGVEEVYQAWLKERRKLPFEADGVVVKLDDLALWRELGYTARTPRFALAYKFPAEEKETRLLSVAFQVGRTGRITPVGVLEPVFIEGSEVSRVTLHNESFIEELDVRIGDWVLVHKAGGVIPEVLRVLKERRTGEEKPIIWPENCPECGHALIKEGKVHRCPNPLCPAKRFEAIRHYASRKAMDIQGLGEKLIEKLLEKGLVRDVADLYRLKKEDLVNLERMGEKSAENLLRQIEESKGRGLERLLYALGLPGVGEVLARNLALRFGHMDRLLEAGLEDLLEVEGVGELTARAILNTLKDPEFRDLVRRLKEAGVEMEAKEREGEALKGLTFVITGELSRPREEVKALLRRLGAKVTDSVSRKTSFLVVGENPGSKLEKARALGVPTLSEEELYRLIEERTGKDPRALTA

As to “nicked duplex, T-G mismatch at penultimate 3'-end”, the activity (fmol/ (time unit not given)) was 0.26 in data set [1] (fidelity 380); 7.1 in data set [2] (fidelity 19); 0.12 in data set [3] (fidelity 1100); 0.38 in data set [4] (fidelity 400); 0.29 in data set [5] (fidelity 190).

With nicked duplex, T-G mismatch at 3'-end, the activity (fmol/ (time unit not given)) is 0.029 in data set [1] (fidelity 3500); 2.8 in data set [2] (fidelity 50); 0.025 in data set [3] (fidelity 5200); 0.029 in data set [4] (fidelity 5300); 0.065 in data set [5] (fidelity 840).

For the substance nicked duplex, C-G match at 3'-end, the activity (fmol/ (time unit not given)) in data set [1] (setting [6]) is 99; in data set [2] (10 mM MgCl2, 12.5 nM substrate), 140; in data set [3] (setting [6]), 130; in data set [4] (setting [6]), 150; in data set [5] (1.25 nM enzyme as printed, NAD+, 10 mM MgCl2), 55.
